Measured values reported in publication PMC13477270.

Target: miniTRIM37 RING–B-box-2–hcc (human | T. thermophilus) (UniProt O94972)
Assay: SEC-MALS

stoichiometry N: 2
Substance: miniTRIM37 RING–B-box-2–hcc (from UniProt O94972 1-158; O94972 214-254)
